This note sets out measurements from the supplement of paper PMC9170038.

The subject of this data set is MS2 coat protein. Nature of the data set: apparent KD of MS2 coat protein; designed switch direction (-1 OFF switch, 1 ON switch): -1; higher = weaker reporter binding. Put shortly: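 Apparent KD, taken as the median over clusters for each design, was obtained by curve-fitting normalised cluster fluorescence. Designed RNA switches had been transcribed on Illumina chips by stalled E. coli RNA polymerase and titrated with SNAP-549-labelled MS2 coat protein, doubling from 0.7 or 1.5 nM to 3 µM.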

[1] abbreviates: Eterna round: R95, input ligand: microRNA oligo, concentration not stated.
Where [2] appears, read: Eterna round: R95, input ligand: FMN 200 uM.
[3] abbreviates: Eterna round: R95, input ligand: none.
[4] abbreviates: input ligand: microRNA oligo, concentration not stated.

For “AUUUACGGAGGAUAUACUUGAGGAUCACCCAAGUGGAGUCCCGUUUGGGCGGUAAAUAGUAGAAGGCCGUCCUA [jl-ex3-4.46 ViennaUCT mod] (Eterna round: R97, puzzle: Exclusion 3)”, the “apparent KD of MS2 coat protein” value (input ligand: FMN 200 uM) turned out to be 27.7 nM and the “apparent KD of MS2 coat protein” value (input ligand: none) amounted to 16.2 nM.

Take “CUCAAGUUAGGAUAUCCAAACGACACGUGCGGACGUUCAACGGAGAAGGGACUUGAGGAUCACCCAAGUUAAAA [Riusbireis] (Eterna round: R97, puzzle: Exclusion 4)”: the “apparent KD of MS2 coat protein” value (input ligand: FMN 200 uM) came out at 137 nM and the “apparent KD of MS2 coat protein” value (input ligand: none) was 45 nM.

As for “AAUAAGCUAGGAUAUACAUGAGGAUCACCCAUGUGAGGGCACGGCCGGCGCGGGCCCGGUAGAAGGAGUCAUAA [Exc;s3-VI] (puzzle: Exclusion 3)”, under setting [1], the “apparent KD of MS2 coat protein” value is 26.4 nM.

Consider “GGGUGCAGGCUGAGGUCCUACAUGAGGAUCACCCAUGUGGUCCGGUGACGUGGGUCGCCGGACUUGGCUCGUCUUGU [salish99_S_TOV1_R5_012] (Eterna round: R97, puzzle: Sensor, turn-off variant 1)”, for which the “apparent KD of MS2 coat protein” value runs as follows: (input ligand: FMN 200 uM) 39 nM; (input ligand: none) 48.6 nM.

With “GAUCCACAUGAGGAUCACCCAUGUGAGGAUAUGAUACUAUGUACUUCGGUACAUAGUAUCAGAAGGCACGGGUC [Ex1-3: 55] (puzzle: Exclusion 1)”, the “apparent KD of MS2 coat protein” value under setting [1] came out at 72.5 nM.

Regarding “CAAAAGGUAGGAUAUACGAAAAAAAAGGGUAGAAAAAAAACACAUGAGGAUCACCCAUGUAGAAGGACCAAAAA [salish99_ex2_r3_055] (puzzle: Exclusion 2)”, the “apparent KD of MS2 coat protein” value is 67.6 nM under setting [2], 22 nM under setting [1] and 24.5 nM under setting [3].

As to “GUGGUGACAGGAUAUACAUGAGGAUCACCCAUGUGAGGAGGACGAGACAGGUGAAGGAGUAGAAGGGUCAGAGA [JR_Exclu3_Sub026] (puzzle: Exclusion 3)”, the “apparent KD of MS2 coat protein” value is, setting by setting: under setting [2], 134 nM; under setting [1], 61.9 nM; under setting [3], 95.6 nM.

Turning to “CUAUUGGCAGGAUAUGCUUUUUUAGACAUGAGGAUCACCCAUGUGAUGAAUUUUGGGUUUGCAGAAGGGCCUGAGU [JR_E5_Sub038] (puzzle: Exclusion 5)”, the “apparent KD of MS2 coat protein” value under setting [1] is 56.6 nM.

Take “ACAUGAGGAUCACCCAUGUCAGGUUGGUUUUCUCCGGCUGUUGAGGAUAUAGUCCGGUAUCCGCGCUAGAAGGUGAGGGUUGGC [Aenatbe mod 13] (Eterna round: R96, puzzle: Exclusion NG 3)”: the “apparent KD of MS2 coat protein” value runs as follows: (input ligand: FMN 200 uM) 64.5 nM; under setting [4], 54.4 nM; (input ligand: none) 78.7 nM.

For the sequence “UGUAAGGCAGAGGAUAUGGUUACUAGACGAGUACCAGAAGGCUGCACAUGAGGAUCACCCAUGUGAAAUCCACU [Eternabot (L1) Solution 72] (Eterna round: R97, puzzle: Exclusion 6)”, the “apparent KD of MS2 coat protein” value is, setting by setting: (input ligand: FMN 200 uM) 80.7 nM; (input ligand: none) 34.7 nM.

Take “UGGGUCACAGGAUAUACAUGAGGAUCACCCAUGUCGUAUUUCGUGGCGGAGAGCUCGAGUAGAAGGGUGCAUCC [Malarala] (puzzle: Exclusion 3)”: the “apparent KD of MS2 coat protein” value under setting [1] amounted to 96.3 nM.

As to “CAGUACUGAGGAUAUACAUGAGGAUCACCCAUGUUGAGAUGAAAAGAAAUAGUUUCAUGUAGAAGGCGGUGCUG [JR_Ex3_Sub048] (Eterna round: R97, puzzle: Exclusion 3)”, the “apparent KD of MS2 coat protein” value is, setting by setting: (input ligand: FMN 200 uM) 365 nM; (input ligand: none) 118 nM.

With “GCUUGGCGAGGAUAUACAUGAGGAUCACCCAUGUGAGAGAAAGAAGUGAGGAAGAAAAGUAGAAGGCGCUGAGG [Mat - Exclusion 3 - Mod of Salish D60] (puzzle: Exclusion 3)”, the “apparent KD of MS2 coat protein” value is, setting by setting: under setting [2], 165 nM; under setting [1], 50.5 nM; under setting [3], 75.4 nM.

“CCCACAAGCUUUUUGCUCGACAUGAGGAUCACCCAUGUUGAAUGGGUUAGAUGUGUGUGAAACAUAUAUAUUUACCU [-24.2, -47 kcal, A 27%] (Eterna round: R97, puzzle: Sensor, turn-off variant 1)”: the “apparent KD of MS2 coat protein” value was found to be 25.5 nM (input ligand: FMN 200 uM) and 26.4 nM (input ligand: none).

With “CCGAGCAGACGGAGAUCCAACAUGAGGAUCACCCAUGUCUCAAAAGCUUUUUGCUCGUCUUAUCCUCCUCUGUUCUC [Legedi] (puzzle: Sensor v3, turn-off variant 1)”, the “apparent KD of MS2 coat protein” value under setting [2] was 27.6 nM, the “apparent KD of MS2 coat protein” value under setting [1] is 200 nM and the “apparent KD of MS2 coat protein” value under setting [3] was 25.7 nM.

Consider “CCGAAGUGGCGGUCCUAUGACAUGAGGAUCACCCAUGUACUUCGCCACAAGCUUUUUGCUCAUCUUAUAGUUCUCGG [Ator] (puzzle: Sensor v3, turn-off variant 1)”, for which the “apparent KD of MS2 coat protein” value is, setting by setting: under setting [2], 16.4 nM; under setting [1], 25.1 nM; under setting [3], 16.4 nM.

For “AGCGCCAUCGUGAGAUGGCGUAUUACAUGAGGAUCACCCAUGUAGGAUAUCGAUUGCUUUGCAGUCGAGAAGGGCAUGUCCAAG [JL ENG3 3.80 Mod I] (Eterna round: R96, puzzle: Exclusion NG 3)”, the “apparent KD of MS2 coat protein” value worked out at 45.4 nM (input ligand: FMN 200 uM), 37.8 nM under setting [4] and 35 nM (input ligand: none).

Consider “CGUGGCUUUUACGUGAGUGGUGGGUGCAACAGGUGGGUUACAUGAGGAUCACCCAUGUGCUCACUUGCUCGUCUUUU [Grok-var2-10] (puzzle: Sensor v3, turn-off variant 2)”, for which the “apparent KD of MS2 coat protein” value by setting is: under setting [2], 51.8 nM; under setting [1], 17.5 nM; under setting [3], 52.5 nM.

Consider “GUAGGGUCAGGAUAUACUGGCUGAGGGAUGUAUUGUAGUUGGUAGAAGGGACAUGAGGAUCACCCAUGUAAGUA [JR_Exclu4_Sub057] (puzzle: Exclusion 4)”, for which, under setting [1], the “apparent KD of MS2 coat protein” value was 33.2 nM.

Regarding “GUGGUACAUGAGGAUCACCCAUGUUAGGAUAUCGCGUGAGGUAAAACUUACACACACACGAGAAGGGACGACAU (puzzle: Exclusion 1)”, under setting [1], the “apparent KD of MS2 coat protein” value amounted to 64.4 nM.

Take “AUCAGCUCGUGAGGAUAUACAUGAGGAUCACCCAUGUGGUCAAUAGCAGCUUCGGCUGCAUACAUGUAGAAGGCACGAGCUGAU [ENG2/7-A2] (Eterna round: R96, puzzle: Exclusion NG 2)”: the “apparent KD of MS2 coat protein” value runs as follows: (input ligand: FMN 200 uM) 36.6 nM; under setting [4], 58.5 nM; (input ligand: none) 30.1 nM.

Regarding “AAUACCCUGUUAGGAUAUAAUACCGAAGGAGUAUUAGAAGGGACAGUAAGGUACAUGAGGAUCACCCAUGUGAGAAUCUGUGCC [Edanxeve] (Eterna round: R96, puzzle: Exclusion NG 1)”, the “apparent KD of MS2 coat protein” value is, setting by setting: (input ligand: FMN 200 uM) 107 nM; under setting [4], 65.3 nM; (input ligand: none) 75.4 nM.

In the case of “GGAAAACAUGAGGAUCACCCAUGUAAGGAUAUGCAAAAGGAUAUAGAAGGAAGAAAAAGCAGAAGGUACAAAGG [salish99-ex1_r3_099] (puzzle: Exclusion 1)”, the “apparent KD of MS2 coat protein” value runs as follows: under setting [2], 72.1 nM; under setting [1], 44.8 nM; under setting [3], 57.9 nM.

On to “AAUAACAAGCUGAUCCUAAACAUGAGGAUCACCCAUGUGCUCGUCUUGUAAAGUACUAUCACGAAAGUGAUAGUACA [MOD7 of my MOD of Eli's v1-59 (mutation at 11 A to U)] (Eterna round: R97, puzzle: Sensor, turn-off variant 1)”, for which the “apparent KD of MS2 coat protein” value runs as follows: (input ligand: FMN 200 uM) 118 nM; (input ligand: none) 142 nM.

Consider “UACAUGAGGAUCACCCAUGUUUUGUCGUGUAUGGUAUUUAUCUAGGAUAUCAUUUGAUUUAGUUAUGAGAAGGAGAAUAUUAAU [JMF's solution 86] (Eterna round: R96, puzzle: Exclusion NG 3)”, for which the “apparent KD of MS2 coat protein” value worked out at 33.6 nM (input ligand: FMN 200 uM), 17.2 nM under setting [4] and 29.9 nM (input ligand: none).

Take “AGCCCUGCAGGAUAUGCCCGGGAUAACAUGAGGAUCACCCAUGUGACCGAUUGUUAUCCUGCAGAAGGGCAUGGGA [JL-EX5-4.12 ViennaUCT mod] (Eterna round: R97, puzzle: Exclusion 5)”: the “apparent KD of MS2 coat protein” value amounted to 172 nM (input ligand: FMN 200 uM) and 161 nM (input ligand: none).

Regarding “UUUUAACAUGAGGAUCACCCAUGUAAGGAUAUGCUAUUUUUUUUUUUUUUUUUUUUUUGCAGAAGGUACAUUUU [My solution] (puzzle: Exclusion 1)”, the “apparent KD of MS2 coat protein” value is, setting by setting: under setting [2], 33.8 nM; under setting [1], 21.3 nM; under setting [3], 21.6 nM.

“GGUGGACAUGAGGAUCACCCAUGUGAGGAUAUCGGCUGGUACGUGUUGGCUGGCAUCUCGAGAAGGCACAUCGU [Exclusion 1 V64] (Eterna round: R96, puzzle: Exclusion 1)”: the “apparent KD of MS2 coat protein” value worked out at 181 nM (input ligand: FMN 200 uM), 46 nM under setting [4] and 49 nM (input ligand: none).

As for “GUAAAGUGAGGAUAUGCUGGAGGUGUAUUCUACGUGUCGAAACAUGAGGAUCACCCAUGUAGAAGGCACGGGCG [Sozaquce] (puzzle: Exclusion 2)”, the “apparent KD of MS2 coat protein” value under setting [1] stood at 10 nM.

As for “AAGUAACAUGAGGAUCACCCAUGUUAGGAUAUCUCGGCCACAGGAUCCCUGUGAAGCCAGAGAAGGAGCGGGUG [Ceraso] (Eterna round: R97, puzzle: Exclusion 1)”, the “apparent KD of MS2 coat protein” value by setting is: (input ligand: FMN 200 uM) 169 nM; (input ligand: none) 202 nM.

“CCGCAAAUGGAGGAUAUCGUAUCGGAUACGAUACGAGAAGGCCAAACAUGAGGAUCACCCAUGUGUCCUAGCGG [Fiskers Ex 6 - 37] (puzzle: Exclusion 6)”: the “apparent KD of MS2 coat protein” value was 30 nM under setting [2], 14.2 nM under setting [1] and 18.6 nM under setting [3].

With “UUGAUGUGAGGAUAUAUUUUUUUUUUUCUUUAUGUUUUAUAACUUGAGGAUCACCCAAGUAGAAGGCGCUACGU [JR_Ex2_Sub064] (Eterna round: R97, puzzle: Exclusion 2)”, the “apparent KD of MS2 coat protein” value amounted to 51.7 nM (input ligand: FMN 200 uM) and 30.5 nM (input ligand: none).
